# Results from paper PMC5291247.
# Values joined by “and” are separate entries in the source; they are usually repeats but may differ in a detail not shown here. Identical values can stand only once.
# Legend:
# [1] = target: Vps75 from which native cysteine residues had been removed (yeast (S. cerevisiae in the introduction)) (UniProt P53853); assay: SEC-MALS + cross-linking; partial DTSSP cross-linking at 200 mM NaCl, 20 mM HEPES pH 7.5 (Vps75 alone, or Vps75 dimers and H3-H4 dimers 1:1, 10 uM); SEC-MALS on Superdex 200 10/300 GL at 400 mM NaCl, 20 mM HEPES-KOH pH 7.5; fractions on SDS-PAGE with and without DTT
# [2] = target: Vps75 from which native cysteine residues had been removed (yeast (S. cerevisiae in the introduction)) (UniProt P53853); assay: cross-linking; Vps75 titrated with H3-H4 at 200 mM NaCl, 20 mM HEPES pH 7.5; 30 min room temperature, 2 mM BS2G for 1 h, SDS-PAGE
# [3] = target: Vps75 from which native cysteine residues had been removed (yeast (S. cerevisiae in the introduction)) (UniProt P53853); assay: cross-linking; cross-linking analysis of Vps75 with Asf1 and H3-H4, SDS-PAGE (Supplementary Figure S4)
stoichiometry N [1],stoichiometry N [2],stoichiometry N (Vps75 monomers per H3-H4 dimer) [3],Substance
4 and 2,4,,Vps75 from which native cysteine residues had been removed (from UniProt P53853 1-264) (natural protein)
,,2,histones H3–H4 from which native cysteine residues had been removed (from UniProt P84233 1-136; P62799 1-103) (complex)
